Results reported in patent publication US20180237502A1 (INTEGRATED BIOTHERAPEUTICS, published 2018).

T1: RESTV GPdTM (Reston virus (RESTV), UniProt Q66799 34-638)
T1 sequence: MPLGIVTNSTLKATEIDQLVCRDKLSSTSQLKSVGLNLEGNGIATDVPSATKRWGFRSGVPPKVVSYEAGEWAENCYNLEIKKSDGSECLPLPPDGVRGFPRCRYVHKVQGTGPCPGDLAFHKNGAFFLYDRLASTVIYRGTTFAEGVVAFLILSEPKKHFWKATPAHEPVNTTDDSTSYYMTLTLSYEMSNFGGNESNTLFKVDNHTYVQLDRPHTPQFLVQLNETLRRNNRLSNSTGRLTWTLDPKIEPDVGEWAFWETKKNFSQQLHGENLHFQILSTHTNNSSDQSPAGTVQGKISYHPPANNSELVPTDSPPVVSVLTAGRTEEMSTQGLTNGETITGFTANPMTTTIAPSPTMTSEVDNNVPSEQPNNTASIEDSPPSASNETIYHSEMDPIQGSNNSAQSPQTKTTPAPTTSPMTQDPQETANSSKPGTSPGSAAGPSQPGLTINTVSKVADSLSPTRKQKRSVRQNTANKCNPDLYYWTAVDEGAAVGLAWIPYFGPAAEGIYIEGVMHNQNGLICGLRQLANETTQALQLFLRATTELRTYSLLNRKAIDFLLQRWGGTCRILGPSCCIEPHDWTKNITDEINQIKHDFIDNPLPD

T2: EBOV GPdTM (Ebola virus (EBOV), UniProt Q05320 33-637)
T2 sequence: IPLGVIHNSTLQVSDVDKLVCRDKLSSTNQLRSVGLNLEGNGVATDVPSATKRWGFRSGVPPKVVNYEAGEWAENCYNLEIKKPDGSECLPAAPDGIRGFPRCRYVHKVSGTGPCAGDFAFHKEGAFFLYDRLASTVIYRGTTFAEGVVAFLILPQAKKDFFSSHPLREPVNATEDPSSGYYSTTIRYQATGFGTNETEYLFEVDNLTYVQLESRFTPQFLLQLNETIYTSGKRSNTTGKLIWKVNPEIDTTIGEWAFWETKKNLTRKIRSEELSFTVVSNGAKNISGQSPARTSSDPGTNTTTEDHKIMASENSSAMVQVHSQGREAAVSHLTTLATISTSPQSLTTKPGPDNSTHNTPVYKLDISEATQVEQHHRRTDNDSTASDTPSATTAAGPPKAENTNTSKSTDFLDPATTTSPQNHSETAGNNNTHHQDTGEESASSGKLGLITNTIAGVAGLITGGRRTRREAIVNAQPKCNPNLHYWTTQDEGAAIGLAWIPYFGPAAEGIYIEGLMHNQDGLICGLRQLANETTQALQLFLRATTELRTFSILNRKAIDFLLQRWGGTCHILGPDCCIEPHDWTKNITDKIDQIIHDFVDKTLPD

T3: MARV GPdTM (Marburg virus (MARV), UniProt P35253 19-637)
T3 construct: also called Marburg virus glycoprotein GPdTM
T3 sequence: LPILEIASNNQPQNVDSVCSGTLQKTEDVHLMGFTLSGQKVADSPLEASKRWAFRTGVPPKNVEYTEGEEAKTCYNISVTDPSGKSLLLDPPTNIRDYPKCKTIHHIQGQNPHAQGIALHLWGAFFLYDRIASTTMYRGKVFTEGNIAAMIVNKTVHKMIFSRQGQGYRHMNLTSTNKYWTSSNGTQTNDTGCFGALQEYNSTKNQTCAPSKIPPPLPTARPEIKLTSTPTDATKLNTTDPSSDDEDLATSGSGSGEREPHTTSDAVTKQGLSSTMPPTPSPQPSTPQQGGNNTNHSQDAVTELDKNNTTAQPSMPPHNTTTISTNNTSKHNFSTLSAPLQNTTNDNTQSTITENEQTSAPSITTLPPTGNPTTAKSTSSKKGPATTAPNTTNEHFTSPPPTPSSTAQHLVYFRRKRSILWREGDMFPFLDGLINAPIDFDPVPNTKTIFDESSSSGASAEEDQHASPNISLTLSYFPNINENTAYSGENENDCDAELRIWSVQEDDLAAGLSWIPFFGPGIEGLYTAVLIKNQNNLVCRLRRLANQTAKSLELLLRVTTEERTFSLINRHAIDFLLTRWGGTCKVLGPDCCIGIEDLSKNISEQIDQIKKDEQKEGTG

B1: murine monoclonal antibody 16G8 (antibody, V domains shown)
VH: EVQLQESGPGLVKPGASVKISCKASGYSFTGYYMNWVKQSPEKSLEWIGEINPSTGGTTYNQKFKAKATLTVDKSSSTAYMQLKSLTSEDSAVYYCVRYSHYYGSGSWYFDVWGTGTTVTVSS
VL: DIQMTQSPASLSASVGETVTITCRASENIYSNLAWYQQKQGKSPQLLVNAATNLADGVPSRFSGSGSGTQFSLKINSLQPEDFGSYYCQHFYVTPYMFGSGTKLEIKR
notes: also called m16G8
B2: murine monoclonal antibody 4B8 (antibody, V domains shown)
VH: EVQLQESGPGILQPSQTLSLTCSFSGFSLRTLGMGVGWIRQSSGKGLEWLAHIWWSDENYYNPALKSRLTISKDTSKNQVFLRIANVDTAETATYYCARIAYDGYFDYWGQGTSLTVSS
VL: KFPSQLLLLLLFGIPGDRVTITCKASEDIYNRLAWYQQKPGNAPRLLISGATSLETGVPSRFSGSGSGKDYTLSITSLQTEDVATYYCQQYWTTPWTFGGGTKLEIKR
notes: also called m4B8
B3: murine monoclonal antibody 8C4 (antibody, V domains shown)
VH: EVQLQESGPELKKPGETVKISCKASGYTFTTYGMSWVKQAPGKGLKWMGRINTYSGVPTYADEFKGRFAFSLENSASTAYLQINNLKNEDTATYFCARGDGGHWFANWGQGTLVTVSA
VL: DIQMTQSPSSLSASLGGKVTITCKASQDINKNIAWYQHKPGKGPRLLIWYKSALQPGIPSRFSGSGSGRDYSFSISNLEPEDIATYSCLQYDNLPPTFGGGTKLEIKR
notes: also called m8C4
B4: murine monoclonal antibody 21B2 (antibody, V domains shown)
VH: EVQLQESGAELVRPGASVTLSCKTSGYTFTDYEMHWVKQTPVHGLEWIGAIDPETGGTAYNQKFKGKATLTADKSSSTAYMELSRLTSEDSAVYYCTGNYATDYWGQGTSVTVSS
VL: DIVMSQSPSSLAVSAGEKVTMSCKSSQSLFNSRSRKNYLAWYQLKPGQSPKLLIYWASTRESGVPDRFTGSGSGTDFTLTISSVQAEDLAVYYCKQSNYLWTFGGGTKLEIKR
notes: also called m21B2
B5: murine monoclonal antibody 17C6 (antibody, V domains shown)
VH: EVQLQESGPGLVQPSQSLSITCTVSGFSLTSYGVHWVRQSPGKGLEWLGVIWSGGSTDYNAAFISRLSISKDNSKSQVFFKMNSLQADDTAIYYCARNWFDYDNYYSMDYWGQGTSVTVSS
VL: DIQMTQTTSSLSASLGDRVTISCRASQDISNYLNWYQQKPDGTVKLLIYYTSRLHSGVPSRFSGSGSGTDFSLTISNQEPEDIATYYCQQYSNLPWTFGGGTKLEIKR
B6: murine monoclonal antibody 2D8 (antibody, V domains shown)
VH: EVQLQESGGELVRPGTSVKISCKASGYTFTNFWLGWIKERPGHGLEWIGDIYPGGHYTNYNENFKGKATLTADTSSNTAYMQVSSLTSEDSAVYFCFTQYYDMDYWGQGTSVTVSS
VL: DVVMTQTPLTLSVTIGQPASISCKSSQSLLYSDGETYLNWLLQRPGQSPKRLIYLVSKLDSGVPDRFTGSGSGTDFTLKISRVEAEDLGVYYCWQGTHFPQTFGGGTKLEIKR

What was measured:
RESTV GPdTM [1] = molecular target: T1, RESTV GPdTM
EBOV GPdTM [2] = molecular target: T2, EBOV GPdTM
MARV GPdTM [3] = molecular target: T3, MARV GPdTM; test: ELISA, purified GPdTM immobilized, serial dilutions of purified mouse mAb
RESTV GPdTM [4] = molecular target: T1, RESTV GPdTM; test: as above
MARV GPdTM [5] = molecular target: T3, MARV GPdTM
EBOV GPdTM [6] = molecular target: T2, EBOV GPdTM; test: ELISA, purified GPdTM immobilized, serial dilutions of purified mouse mAb

| Binder | EC50 (RESTV GPdTM [1]) [µg/mL] | EC50 (EBOV GPdTM [2]) [µg/mL] | binding result (MARV GPdTM [3]) | binding result (RESTV GPdTM [4]) | EC50 (MARV GPdTM [5]) [µg/mL] | binding result (EBOV GPdTM [6]) |
| --- | --- | --- | --- | --- | --- | --- |
| B1 | > 10 | > 10 | no binding | – | – | – |
| B2 | 0.157 | – | no binding | – | – | – |
| B3 | – | 0.26 | no binding | no binding | – | – |
| B4 | – | – | – | – | 0.0688 | no binding |
| B5 | 1.56 | 0.04 | – | – | – | – |
| B6 | – | > 10 | – | – | 0.0445 | – |
